Data published in patent publication US9145571B2, “Preparation method of human metabolites of simvastatin or lovastatin using bacterial cytochrome P450 and composition therefor” (priority 2009, dated 2015).
Where “and” joins values, the source holds several entries; their conditions need not be identical. Equal entries are not always repeated.

How the values were obtained:
[1] = target: T1, CYP102A1 mutant #16 (Priestia megaterium, UniProt P14779, E144G/E268V/F82I/F88V/L189Q/R48L); assay type: biochemical, Bacillus megaterium; conditions: 50 μM αNF
T1 construct: made in house; host or cells: Escherichia coli DH5αF′-IQ (soluble cytosolic fraction)
T1 sequence (P14779 2-1049 R48L/F82I/F88V/E144G/L189Q/E268V): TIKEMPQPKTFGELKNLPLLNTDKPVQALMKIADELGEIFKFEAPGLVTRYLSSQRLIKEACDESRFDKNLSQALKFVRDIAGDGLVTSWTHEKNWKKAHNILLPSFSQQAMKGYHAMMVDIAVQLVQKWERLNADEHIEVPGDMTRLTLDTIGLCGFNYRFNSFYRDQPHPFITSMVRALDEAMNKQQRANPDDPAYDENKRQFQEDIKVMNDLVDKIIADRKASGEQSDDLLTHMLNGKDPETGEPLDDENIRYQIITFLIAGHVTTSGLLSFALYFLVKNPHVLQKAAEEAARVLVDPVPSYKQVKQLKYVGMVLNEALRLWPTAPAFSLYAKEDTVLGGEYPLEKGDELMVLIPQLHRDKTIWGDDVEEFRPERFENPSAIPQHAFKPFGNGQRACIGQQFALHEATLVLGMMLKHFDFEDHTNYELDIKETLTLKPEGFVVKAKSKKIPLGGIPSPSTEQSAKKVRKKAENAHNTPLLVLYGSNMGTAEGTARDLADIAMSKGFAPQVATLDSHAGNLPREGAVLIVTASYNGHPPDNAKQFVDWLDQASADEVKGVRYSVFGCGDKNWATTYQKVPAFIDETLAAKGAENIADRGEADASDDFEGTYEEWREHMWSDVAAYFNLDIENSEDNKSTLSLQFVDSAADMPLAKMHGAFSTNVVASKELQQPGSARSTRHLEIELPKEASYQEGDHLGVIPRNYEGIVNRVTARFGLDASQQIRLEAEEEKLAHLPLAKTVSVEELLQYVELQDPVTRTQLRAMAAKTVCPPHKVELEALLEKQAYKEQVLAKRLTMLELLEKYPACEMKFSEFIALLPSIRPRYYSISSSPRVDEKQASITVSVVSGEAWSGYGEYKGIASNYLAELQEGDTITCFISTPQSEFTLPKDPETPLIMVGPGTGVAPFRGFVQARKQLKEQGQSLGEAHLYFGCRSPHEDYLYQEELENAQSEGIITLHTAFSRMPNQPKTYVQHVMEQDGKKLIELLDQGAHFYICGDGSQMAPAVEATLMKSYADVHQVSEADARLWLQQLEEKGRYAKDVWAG
Description: (§1) Reaction mixtures consists of 50 pmol P450, 100 mM potassium phosphate buffer (pH 7.4), a NADPH-generating system, and a substrate (100 μM of simvastatin or lovastatin) in the presence of αNF (2 to 50 μM).
(§2) Products were analyzed by HPLC, as described above. In the case of human CYP3A4 activity assay, a control experiment of 50 pmol P450, 100 pmol NADPH-P450 reductase (CPR), 100 pmol cytocrhome b5, and 45 μM DLPC was used instead of 50 pmol CYP102A1.

[2] = target: T2, CYP102A1 mutant #17 (Priestia megaterium, UniProt P14779, E144G/E268V/E65G/F82I/F88V/L189Q/R48L); assay type: biochemical, Bacillus megaterium; conditions: 50 μM αNF
T2 construct: made in house; host or cells: Escherichia coli DH5αF′-IQ (soluble cytosolic fraction)
T2 sequence (P14779 2-1049 R48L/E65G/F82I/F88V/E144G/L189Q/E268V): as the sequence (P14779 2-1049 R48L/F82I/F88V/E144G/L189Q/E268V) above, with E64G counted along it
Description: as §1, §2

[3] = target: triple CYP102A1 mutant of R47L/F87V/L188Q (Priestia megaterium, UniProt P14779, F88V/L189Q/R48L); conditions: cited from earlier work
Chain of triple CYP102A1 mutant of R47L/F87V/L188Q (P14779 2-1049 R48L/F88V/L189Q): as the sequence (P14779 2-1049 R48L/F82I/F88V/E144G/L189Q/E268V) above, with I81F, G143E, V267E counted along it

[4] = Oxidation of simvastatin by CYP102A1 wild type/mutants and human CYP3A4, product formation rate (turnover number); assay type: biochemical; conditions: 100 μM simvastatin; mean±SD of triplicate; N.D. = less than 0.001
Description: (§3) It was examined whether CYP102A1 and mutants thereof can oxidize simvastatin and lovastatin. Typical steady-state reactions for the oxidation of simvastatin and lovastatin included 50 pmol CYP102A1 in 0.25 ml of 100 mM potassium phosphate buffer (pH 7.4) along with a specified amount of substrate. To determine the kinetic parameters of several CYP102A1 mutants, 2 to 200 μM of statins were used. An aliquot of a NADPH-generating system was used to initiate reactions (final concentrations: 10 mM glucose 6-phosphate, 0.5 mM NADP+, and 1 IU yeast […]). A stock solution of statins (20 mM) was prepared in DMSO and diluted into the enzyme reactions with a final organic solvent concentration of <1% (v/v).
(§4) In the case of human CYP3A4 activity assay, a control experiment of 50 pmol P450, 100 pmol NADPH-P450 reductase (CPR), 100 pmol cytocrhome b5, and 45 μM L-α-dilauroyl-sn-glycero-3-phosphocholine (DLPC) was used instead of 50 pmol CYP102A1. After the solution was incubated for 30 minutes at 37° C., the reaction was terminated with 2-fold of ice-cold dichloromethane.
(§5) After centrifugation of the reaction mixture, the supernatant was carefully removed and the solvent was evaporated under N2 gas as described in Vickers et al., 1990. The products were analyzed by HPLC using a Gemini C18 column (4.6 mm×150 mm, 5 μm, Phenomenex, Torrance, Calif.) with a mobile phase of acetonitrile/water (70/30, v/v) containing 2.5 mM formic acid. Eluates were detected by UV at 238 nm.
(§6) First, the ability of wild-type and a set of P450 BM3 mutants to oxidize simvastatin and lovastatin was measured at a fixed substrate concentration (100 μM). While simvastatin and lovastatin are known to produce at least four and three metabolites, respectively, CYP102A1 mutants produced only two metabolites, one major (6β-OH statin) and one minor (6′-exomethylene statin) metabolites. The metabolites were analyzed by HPLC and compared to those of human CYP3A4 (FIGS. 1 and 2). Since there is no need to comprise a separate step of the 6′β-OH statin and 6′-exomethylene statin from other products, the use of wild-type and mutant CYP102A1 is beneficial.
(§7) Assays were performed using 100 μM simvastatin or lovastatin. Values are the mean±SD of triplicate determinations.

[5] = Oxidation of lovastatin by CYP102A1 wild type/mutants and human CYP3A4, product formation rate (turnover number); assay type: biochemical; conditions: 100 μM lovastatin; mean±SD of triplicate; N.D. = less than 0.001
Description: as §3, §4, §5, §6, §7

[6] = Total turnover numbers of 6′β-OH product formation, simvastatin; assay type: biochemical; conditions: total 1.0 mM statin, 37° C., 4 hours
Description: (§8) In order to measure the total turnover numbers (TTNs; mol product/mol catalyst) of mutant CYP102A1, total 1.0 mM statin was used. The reaction was initiated by the addition of the NADPH-generating system in the presence of 500 μM substrate and incubated at 37° C. for 4 hours. After 2 hours of incubation, the 500 μM substrate was added to the reaction mixture. The formation rate of simvastatin metabolites was determined by HPLC chromatograms.

[7] = Total turnover numbers of 6′β-OH product formation, lovastatin; assay type: biochemical; conditions: total 1.0 mM statin, 37° C., 4 hours
Description: as §8, with “The formation rate of simvastatin metabolites was determined by HPLC chromatograms.” left out

[8] = Kinetic parameters of 6′β-hydroxylation of simvastatin; assay type: biochemical; conditions: 2 to 200 μM statin
Description: (§9) The 6′β-hydroxylation rates of simvastatin (A) and lovastatin (B) were measured in reaction mixtures consistingof 50 pmol CYP102A1 in 0.25 ml of 100 mM potassium phosphate buffer (pH 7.4) along with a specified amount of substrate (2 to 200 μM of statins)
as §3
(§10) The kinetic parameters (Km and kcat) were determined using nonlinear regression analysis with GraphPad PRISM software (GraphPad, San Diego, Calif.). […]

[9] = Kinetic parameters of 6′β-hydroxylation of lovastatin; assay type: biochemical; conditions: 2 to 200 μM statin
Description: as §9, §3, §10

Molecule: O=c1cc(-c2ccccc2)oc2c1ccc1ccccc12 [αNF, 7,8-benzoflavone]
- Inhibition of 6′β-hydroxylation activity of lovastatin ([1]; 100 μM lovastatin): 48%
- Inhibition of 6′β-hydroxylation activity of simvastatin ([1]; 100 μM simvastatin): 44%
- Inhibition of 6′β-hydroxylation activity of lovastatin ([2]; 100 μM lovastatin): 76%
- Inhibition of 6′β-hydroxylation activity of simvastatin ([2]; 100 μM simvastatin): 77%
- Effect on metabolism of acetaminophen and 3,4-methylenedioxymethylamphetamine [3]: did not have a significant effect

Molecule: Human CYP3A4: human cytochrome P450 3A4, reconstituted with NADPH-P450 reductase, cytochrome b5 and DLPC
- Simvastatin 6β′-OH product formation rate [4]: 3.0 ± 0.1 nmol product/min/nmol P450
- Simvastatin 6′-Exomethylene product formation rate [4]: 0.22 ± 0.01 nmol product/min/nmol P450
- Lovastatin 6β′-OH product formation rate [5]: 6.5 ± 0.3 nmol product/min/nmol P450
- Lovastatin 6′-Exomethylene product formation rate [5]: 0.43 ± 0.01 nmol product/min/nmol P450
- Total turnover number of 6′β-OH product formation, simvastatin [6]: 35 ± 5 nmol product/nmol P450
- Total turnover number of 6′β-OH product formation, lovastatin [7]: 44 ± 6 nmol product/nmol P450
- Km [8]: 130 µM
- kcat, 6′β-hydroxylation of simvastatin [8]: 0.11 s⁻¹ and 0.11 ± 0.015 s⁻¹
- Km [9]: 54 ± 15 µM
- kcat, 6′β-hydroxylation of lovastatin [9]: 0.07 s⁻¹ and 0.07 ± 0.0083 s⁻¹

B1: BM3 WT: wild-type bacterial cytochrome P450 BM3 (CYP102A1), Seq ID No. 16 (protein, listed as Bacillus megaterium)
chain: TIKEMPQPKTFGELKNLPLLNTDKPVQALMKIADELGEIFKFEAPGRVTRYLSSQRLIKEACDESRFDKNLSQALKFVRDFAGDGLFTSWTHEKNWKKAHNILLPSFSQQAMKGYHAMMVDIAVQLVQKWERLNADEHIEVPEDMTRLTLDTIGLCGFNYRFNSFYRDQPHPFITSMVRALDEAMNKLQRANPDDPAYDENKRQFQEDIKVMNDLVDKIIADRKASGEQSDDLLTHMLNGKDPETGEPLDDENIRYQIITFLIAGHETTSGLLSFALYFLVKNPHVLQKAAEEAARVLVDPVPSYKQVKQLKYVGMVLNEALRLWPTAPAFSLYAKEDTVLGGEYPLEKGDELMVLIPQLHRDKTIWGDDVEEFRPERFENPSAIPQHAFKPFGNGQRACIGQQFALHEATLVLGMMLKHFDFEDHTNYELDIKETLTLKPEGFVVKAKSKKIPLGGIPSPSTEQSAKKVRKKAENAHNTPLLVLYGSNMGTAEGTARDLADIAMSKGFAPQVATLDSHAGNLPREGAVLIVTASYNGHPPDNAKQFVDWLDQASADEVKGVRYSVFGCGDKNWATTYQKVPAFIDETLAAKGAENIADRGEADASDDFEGTYEEWREHMWSDVAAYFNLDIENSEDNKSTLSLQFVDSAADMPLAKMHGAFSTNVVASKELQQPGSARSTRHLEIELPKEASYQEGDHLGVIPRNYEGIVNRVTARFGLDASQQIRLEAEEEKLAHLPLAKTVSVEELLQYVELQDPVTRTQLRAMAAKTVCPPHKVELEALLEKQAYKEQVLAKRLTMLELLEKYPACEMKFSEFIALLPSIRPRYYSISSSPRVDEKQASITVSVVSGEAWSGYGEYKGIASNYLAELQEGDTITCFISTPQSEFTLPKDPETPLIMVGPGTGVAPFRGFVQARKQLKEQGQSLGEAHLYFGCRSPHEDYLYQEELENAQSEGIITLHTAFSRMPNQPKTYVQHVMEQDGKKLIELLDQGAHFYICGDGSQMAPAVEATLMKSYADVHQVSEADARLWLQQLEEKGRYAKDVWAG
- Simvastatin 6β′-OH product formation rate [4]: 0.0049 ± 0.0017 nmol product/min/nmol P450
- Simvastatin 6′-Exomethylene product formation rate [4]: N.D. (not detectable(the rate of product formation was less than 0.001 nmol product/min/nmol P450))
- Lovastatin 6β′-OH product formation rate [5]: N.D. (not detectable(the rate of product formation was less than 0.001 nmol product/min/nmol P450))
- Lovastatin 6′-Exomethylene product formation rate [5]: N.D. (not detectable(the rate of product formation was less than 0.001 nmol product/min/nmol P450))
- Total turnover number of 6′β-OH product formation, simvastatin [6]: 0.77 ± 0.04 nmol product/nmol P450
- Total turnover number of 6′β-OH product formation, simvastatin ([6]; listed as wild-type CYP102A1): 0.77 nmol product/nmol P450
- Total turnover number of 6′β-OH product formation, lovastatin [7]: 1.9 ± 0.6 nmol product/nmol P450
- Total turnover number of 6′β-OH product formation, lovastatin ([7]; listed as wild-type CYP102A1): 1.9 nmol product/nmol P450
